Measurements reported in US12357670B2, “Topical cream-based cosmetic and wound healing formulations and methods of use” (Eir Pharmaceuticals, LLC, priority 2018, dated 2025).

Experiments:
[1] = Stability of protein in the cream-based formulation (SDS-PAGE); format: physicochemical; details: in the cream formulations, stored at room temperature
Method: Stability is a major issue in incorporating recombinant proteins as active ingredients into a commercial product. […] Samples were then prepared for analysis and loaded onto an SDS-PAGE gel.
The samples were: Lane 1 contains TRIM Family Member protein that was stored in Phosphate Buffered Saline (PBS) at 4° C. for 13 months. Lane 2-4 are samples of the cream-based formulation containing the TRIM Family Member protein. The arrows indicate the band corresponding to the molecular weight of TRIM Family Member protein in each of the samples in Lanes 2-4. […] This is indicated by the lack of doublet bands in the cream samples. Thus, these formulations for the Emulsifier and Hydrogel are viable systems to maintain the activity of the active ingredient.

[2] = Isoelectric point / net charge of TRIM family member; format: physicochemical

Question: For “TRIM Family Member protein: TRIM-family member protein, MG53, active ingredient of the cream”, which “activity of the active ingredient on storage” value [1] is on record?
Answer: remains active for over one year

Question: What about the isoelectric point [2] of the same substance?
Answer: 6.08

Question: What about the net charge ([2]; physiological pH of blood (7.35)) of the same substance?
Answer: negative
